Experimental data: the supplement of paper PMC11246515
± gives the standard deviation of the averaged measurements.

Assay: total protein half-life in vivo (active degradation + dilution); higher = more stable protein
[1] = E. coli NCM3722 delta-clpP delta-lon delta-hslV, growth: N-lim chemostat, doubling time 6 h
[2] = E. coli NCM3722 delta-clpP, growth: N-lim chemostat, doubling time 6 h
[3] = E. coli NCM3722 delta-hslV, growth: N-lim chemostat, doubling time 6 h
[4] = E. coli NCM3722 delta-lon, growth: N-lim chemostat, doubling time 6 h
[5] = E. coli NCM3722 delta-smpB, growth: N-lim chemostat, doubling time 6 h
[6] = wild type E. coli NCM3722, growth: C-lim chemostat, doubling time 3 h
[7] = wild type E. coli NCM3722, growth: C-lim chemostat, doubling time 6 h
[8] = wild type E. coli NCM3722, growth: C-lim chemostat, doubling time 12 h
[9] = wild type E. coli NCM3722, growth: N-lim chemostat, doubling time 6 h
[10] = wild type E. coli NCM3722, growth: N-lim chemostat, doubling time 12 h
[11] = wild type E. coli NCM3722, growth: P-lim chemostat, doubling time 6 h
[12] = wild type E. coli NCM3722, growth: P-lim chemostat, doubling time 12 h

Sequence	total protein half-life in vivo [1]	total protein half-life in vivo [2]	total protein half-life in vivo [3]	total protein half-life in vivo [4]	total protein half-life in vivo [5]	total protein half-life in vivo [6]	total protein half-life in vivo [7]	total protein half-life in vivo [8]	total protein half-life in vivo [9]	total protein half-life in vivo [10]	total protein half-life in vivo [11]	total protein half-life in vivo [12]
MDRIIQSPGKYIQGADVINRLGEYLKPLAERWLVVGDKFVLGFAQSTVEKSFKDAGLVVEIAPFGGECSQNEIDRLRGIAETAQCGAILGIGGGKTLDTAKALAHFMGVPVAIAPTIASTDAPCSALSVIYTDEGEFDRYLLLPNNPNMVIVDTKIVAGAPARLLAAGIGDALATWFEARACSRSGATTMAGGKCTQAALALAELCYNTLLEEGEKAMLAAEQHVVTPALERVIEANTYLSGVGFESGGLAAAHAVHNGLTAIPDAHHYYHGEKVAFGTLTQLVLENAPVEEIETVAALSHAVGLPITLAQLDIKEDVPAKMRIVAEAACAEGETIHNMPGGATPDQVYAALLVADQYGQRFLQEWE [P0A9S5]	4.72 ± 0.17 h	4.2 ± 0.78 h	4.13 ± 0.15 h	4.432 ± 0.034 h	3.52 ± 0.49 h	3.07 ± 0.084 h	5.75 ± 0.4 h	11.7 ± 0.7 h	4.8 ± 0.91 h	6.5 ± 0.44 h	6.33 ± 0.13 h	13 ± 0.35 h
MSWISPELIEILLTILKAVVILLVVVTCGAFMSFGERRLLGLFQNRYGPNRVGWGGSLQLVADMIKMFFKEDWIPKFSDRVIFTLAPMIAFTSLLLAFAIVPVSPGWVVADLNIGILFFLMMAGLAVYAVLFAGWSSNNKYSLLGAMRASAQTLSYEVFLGLSLMGVVAQAGSFNMTDIVNSQAHVWNVIPQFFGFITFAIAGVAVCHRHPFDQPEAEQELADGYHIEYSGMKFGLFFVGEYIGIVTISALMVTLFFGGWQGPLLPPFIWFALKTAFFMMMFILIRASLPRPRYDQVMSFGWKICLPLTLINLLVTAAVILWQAQ [P0AFD4]		6.49 ± 0.27 h	5.73 ± 0.34 h	6.09 ± 0.59 h	6.41 ± 1.4 h		6.75 ± 1.2 h	13.8 ± 2 h	6.53 ± 0.46 h	9.26 ± 2 h	6.237 ± 0.017 h	13.1 ± 3 h
MSKFLDRFRYFKQKGETFADGHGQLLNTNRDWEDGYRQRWQHDKIVRSTHGVNCTGSCSWKIYVKNGLVTWETQQTDYPRTRPDLPNHEPRGCPRGASYSWYLYSANRLKYPMMRKRLMKMWREAKALHSDPVEAWASIIEDADKAKSFKQARGRGGFVRSSWQEVNELIAASNVYTIKNYGPDRVAGFSPIPAMSMVSYASGARYLSLIGGTCLSFYDWYCDLPPASPQTWGEQTDVPESADWYNSSYIIAWGSNVPQTRTPDAHFFTEVRYKGTKTVAVTPDYAEIAKLCDLWLAPKQGTDAAMALAMGHVMLREFHLDNPSQYFTDYVRRYTDMPMLVMLEERDGYYAAGRMLRAADLVDALGQENNPEWKTVAFNTNGEMVAPNGSIGFRWGEKGKWNLEQRDGKTGEETELQLSLLGSQDEIAEVGFPYFGGDGTEHFNKVELENVLLHKLPVKRLQLADGSTALVTTVYDLTLANYGLERGLNDVNCATSYDDVKAYTPAWAEQITGVSRSQIIRIAREFADNADKTHGRSMIIVGAGLNHWYHLDMNYRGLINMLIFCGCVGQSGGGWAHYVGQEKLRPQTGWQPLAFALDWQRPARHMNSTSYFYNHSSQWRYETVTAEELLSPMADKSRYTGHLIDFNVRAERMGWLPSAPQLGTNPLTIAGEAEKAGMNPVDYTVKSLKEGSIRFAAEQPENGKNHPRNLFIWRSNLLGSSGKGHEFMLKYLLGTEHGIQGKDLGQQGGVKPEEVDWQDNGLEGKLDLVVTLDFRLSSTCLYSDIILPTATWYEKDDMNTSDMHPFIHPLSAAVDPAWEAKSDWEIYKAIAKKFSEVCVGHLGKETDIVTLPIQHDSAAELAQPLDVKDWKKGECDLIPGKTAPHIMVVERDYPATYERFTSIGPLMEKIGNGGKGIAWNTQSEMDLLRKLNYTKAEGPAKGQPMLNTAIDAAEMILTLAPETNGQVAVKAWAALSEFTGRDHTHLALNKEDEKIRFRDIQAQPRKIISSPTWSGLEDEHVSYNAGYTNVHELIPWRTLSGRQQLYQDHQWMRDFGESLLVYRPPIDTRSVKEVIGQKSNGNQEKALNFLTPHQKWGIHSTYSDNLLMLTLGRGGPVVWLSEADAKDLGIADNDWIEVFNSNGALTARAVVSQRVPAGMTMMYHAQERIVNLPGSEITQQRGGIHNSVTRITPKPTHMIGGYAHLAYGFNYYGTVGSNRDEFVVVRKMKNIDWLDGEGNDQVQESVK	6.33 ± 1.8 h		5.88 ± 0.73 h	6.6 ± 0.84 h	4.97 ± 0.39 h	2.41 h	6.81 h	13.2 h	6.23 ± 0.94 h		5.64 ± 0.29 h	12.1 ± 1.3 h
MRKSVIAIIIIVLVVLYMSVFVVKEGERGITLRFGKVLRDDDNKPLVYEPGLHFKIPFIETVKMLDARIQTMDNQADRFVTKEKKDLIVDSYIKWRISDFSRYYLATGGGDISQAEVLLKRKFSDRLRSEIGRLDVKDIVTDSRGRLTLEVRDALNSGSAGTEDEVTTPAADNAIAEAAERVTAETKGKVPVINPNSMAALGIEVVDVRIKQINLPTEVSEAIYNRMRAEREAVARRHRSQGQEEAEKLRATADYEVTRTLAEAERQGRIMRGEGDAEAAKLFADAFSKDPDFYAFIRSLRAYENSFSGNQDVMVMSPDSDFFRYMKTPTSATR [P0ABC3]	6.51 ± 1.1 h	6.07 ± 0.18 h	6.357 ± 0.024 h	6.347 ± 0.034 h	5.72 ± 0.33 h	3.09 ± 0.1 h	6.06 ± 0.14 h	11.7 ± 0.84 h	6.653 ± 0.049 h	12.7 ± 0.77 h	6 ± 0.65 h	13.8 ± 0.97 h
MATLKDIAIEAGVSLATVSRVLNDDPTLNVKEETKHRILEIAEKLEYKTSSARKLQTGAVNQHHILAIYSYQQELEINDPYYLAIRHGIETQCEKLGIELTNCYEHSGLPDIKNVTGILIVGKPTPALRAAASALTDNICFIDFHEPGSGYDAVDIDLARISKEIIDFYINQGVNRIGFIGGEDEPGKADIREVAFAEYGRLKQVVREEDIWRGGFSSSSGYELAKQMLAREDYPKALFVASDSIAIGVLRAIHERGLNIPQDISLISVNDIPTARFTFPPLSTVRIHSEMMGSQGVNLVYEKARDGRALPLLVFVPSKLKLRGTTR	5.54 ± 0.078 h	6.95 ± 1.2 h	5.31 ± 0.62 h	5.72 ± 0.54 h	5.35 ± 0.066 h	2.89 ± 0.27 h	5.94 ± 0.29 h	9.8 ± 0.15 h	5.07 ± 0.53 h		6.01 ± 0.76 h	13.4 ± 2.6 h
